According to paper PMC2376138 (2002):
Values belong to the binder of their own block, whether it stands above or below them.

Legend:
[1] = target: T1, SC142-reactive antigen (human (endogenous in SNU16), highly glycosylated (O-glycans)); assay: SPR; apparent; immobilised mAb, 1:1 Langmuir global fit
[2] = target: T1, SC142-reactive antigen; assay: SPR; apparent; immobilised scFv, 1:1 Langmuir global fit

koff [1]: 0.000825 s⁻¹
B1: SC142 monoclonal antibody (antibody, V domains shown)
VH: QVKLQQSGTEVVKPGASVKLSCKASGYIFTSYDIDWVRQTPEQGLEWIGWIFPGEGSTEYNEKFKGRATLSVDKSSSTAYMELTRLTSEDSAVYFCARGDYYRRYFDLWGQGTTVTVSS
VL: DIELTQSPTIMSASPGERVTMTCSASSSIRYIYWYQQKPGSSPRLLIYDTSNVAPGVPFRFSGSGSGTSYSLTINRMEAEDAATYYCLEWSGYPYTFGGGTKLELK

koff [2]: 0.000776 s⁻¹
B2: recombinant SC142 scFv (scFv, V domains shown)
VH: B1 VH
VL: B1 VL
